B1: γ4: rat calcium channel γ4 subunit (AF361341), SEQ ID NO:47 (protein, listed as Rattus norvegicus)
chain: MVRCDRGLQMLLTTAGAFAAFSLMAIAIGTDYWLYSSAHICNGTNLTMDDGPPPRRARGDLTHSGLWRVCCIEGIYKGHCFRINHFPEDNDYDHDSSEYLLRIVRASSVFPILSTILLLLGGLCIGAGRIYSRKNNIVLSAGILFVAAGLSNIIGIIVYISSNTGDPSDKRDEDKKNHYNYGWSFYFGALSFIVAETVGVLAVNIYIEKNKELRFKTKREFLKASSSSPYSRMPSYRYRRRRSRSSSRSTEASPSRDASPVGLKITGAIPMGELSMYTLSREPLKVTTAASYSPDQDAGFLQMHDFFQQDLKEGFHVSMLNRRTTPV
B2: γ6L: rat calcium channel γ6 subunit, long isoform (AF361343), SEQ ID NO:48 (protein, listed as Rattus norvegicus)
chain: MMWSNFFMQEEDRRRTAVGRRRAQEQQNLGLTPEREGKIKLGLLVAIVGATLAVLAVGTEFWVELNTYKTNGSAVCEAAHLGLWKVCIKRLWQADVPAGRETCGPAELPGEANCTYFKFFTTGENAHIFQRTTKKEVNLAAAVIAVLGLTAMALGCLCVIMVLSKGAEFLLRLGAVCFGLSGLLLFVSLEVFRHSVRALLQGVNPETPPAPRLAYEYSWSLGCGVGAGLILLLGGVCFLLLTLPSWPWRSLCPKRGGPTA

Biological target: T1, Cav3.1 (Homo sapiens, UniProt O43497)
T1 construct: expressed in transfected cells; host or cells: HEK-293, stably transfected
Assay: Whole-cell patch clamp of Cav3.1 dependent LVA calcium current in HEK-293/Cav3.1 cells transiently transfected with γ subunits (Example 1)
Type: cell-based
Conditions: for Effect on current kinetics or voltage dependency: HEK-293/Cav3.1; for Peak current density, % of control value: HEK-293/Cav3.1, normalized to adCGI vector control, mean±S.E.M.; for Activation V 0.5 / Activation k / Deactivation tau @ −100 mV, Fast / Inactivation Tau @ −20 mV / Inactivation V 0.5 / Inactivation k / Time to peak @ −20 mV / V peak: Table 2
Description: 2.3. Transfection. Untransfected HEK-293 cells, HEK-293 cell lines stably transfected with Cav3.1, and HL-1 cells were transiently transfected with vectors containing γ subunit, GFP, and modified CFP cDNAs using Lipofectamine 2000 reagent (InVitrogen) as per the manufacturer's recommendations. HEK-293 cells were grown to 70-80% confluence before transfection. HL-1 cells were grown to 50-75% confluence before transfection.
2.4. Electrophysiology. Whole-cell calcium currents were recorded using an Axopatch-1 D patch clamp system and Clampex 8.0 software. Pipettes were fabricated from borosilicate glass and had typical resistances of 2-4 MΩ. The pipette solution contained (in mM): 130 NaCl, 10 EGTA, 2 MgCl2, 1 CaCl2, 10 HEPES, 3 Tris-ATP, and either 0.3 Li2GTP or 0.3 Tris-GTP, adjusted to pH 7.4 with NaOH and 280 mOsm with sucrose. The bath solution contained (in mM): 137 NaCl (for HEK-293 experiments) or 120 TEACl (for HL-1 experiments), 1 KCl, 1 MgCl2, 0.33 NaH2PO4, 2 CaCl2 (for HEK-293 experiments) or 5 CaCl2 (for HL-1 experiments), 10 glucose (for HL-1 experiments only), 10 HEPES, and 30 μM TTX (for HEK-293 experiments only), adjusted to pH 7.4 with NaOH (for HEK-293 experiments) or TEAOH (for HL-1 experiments) and 280 mOsm with sucrose. NaCl was used as the major salt in the pipette solution order to eliminate any outward K+ currents.
Recordings from HEK-293 cells were made 48-96 h posttransfection, at which time expression, as measured by GFP fluorescence, peaked. HL-1 cells were used for recording 24-36 h post-transfection. Current densities in HEK-293/Cav3.1 cell experiments were normalized to control for variation in current expression in the different frozen stocks of stable cell lines used. […] HL-1 experiments were performed using a single stock of cells. All HEK-293 data are from current records in which pipette and whole-cell capacitance were about 100% compensated and series resistance was compensated to >80%. Whole-cell capacitance and series resistance were not compensated for HL-1 recordings as currents were typically <100 pA. Series resistance values were typically <10 MX, and no records were used in which the voltage error (as defined by Ver=Imax×Ra) was greater than 5 mV. The holding potential of all protocols used for HEK-293 cells was −100 mV except for steady-state inactivation protocols where the holding potential was −120 mV. The holding potential for protocols used for HL-1 cells was −90 mV. Current-voltage relationships for all HEK-293 and HL-1 cells were measured using 50 ms test depolarizations. Peak current amplitudes for activation curves were determined by fitting tail currents, elicited by stepping membrane voltage from varying test potentials to −60 mV, with the Boltzman equation. Test potential steps for activation protocols were of varied durations, corresponding to the time to peak of the elicited current. Inactivation curves were determined by fitting peak amplitudes of currents, observed in a test pulse to −20 mV, following 500 ms steps to varying potentials, with the Boltzman equation. Time to peak was determined using the current-voltage protocol described above. Inactivation time constants were determined by fitting the decay phase of currents to an exponential equation and deactivation time constants were determined by fitting the decay phase of tail currents to an exponential equation. […] Currents were recorded at 40 kHz and on-line filtered at either 5 or 10 kHz. In some cases currents were off-line filtered at 1 kHz to further reduce noise. Current/voltage relationships and tail currents were recorded from HEK cells using an on-line P/−4 subtraction procedure. Calcium currents recorded from HL-1 cells were off-line leak subtracted. The average membrane capacitance of untransfected HEK-293 cells in pilot experiments was 12.5±1.4 pF (n=8). […]

T1 sequence (O43497 whole entry): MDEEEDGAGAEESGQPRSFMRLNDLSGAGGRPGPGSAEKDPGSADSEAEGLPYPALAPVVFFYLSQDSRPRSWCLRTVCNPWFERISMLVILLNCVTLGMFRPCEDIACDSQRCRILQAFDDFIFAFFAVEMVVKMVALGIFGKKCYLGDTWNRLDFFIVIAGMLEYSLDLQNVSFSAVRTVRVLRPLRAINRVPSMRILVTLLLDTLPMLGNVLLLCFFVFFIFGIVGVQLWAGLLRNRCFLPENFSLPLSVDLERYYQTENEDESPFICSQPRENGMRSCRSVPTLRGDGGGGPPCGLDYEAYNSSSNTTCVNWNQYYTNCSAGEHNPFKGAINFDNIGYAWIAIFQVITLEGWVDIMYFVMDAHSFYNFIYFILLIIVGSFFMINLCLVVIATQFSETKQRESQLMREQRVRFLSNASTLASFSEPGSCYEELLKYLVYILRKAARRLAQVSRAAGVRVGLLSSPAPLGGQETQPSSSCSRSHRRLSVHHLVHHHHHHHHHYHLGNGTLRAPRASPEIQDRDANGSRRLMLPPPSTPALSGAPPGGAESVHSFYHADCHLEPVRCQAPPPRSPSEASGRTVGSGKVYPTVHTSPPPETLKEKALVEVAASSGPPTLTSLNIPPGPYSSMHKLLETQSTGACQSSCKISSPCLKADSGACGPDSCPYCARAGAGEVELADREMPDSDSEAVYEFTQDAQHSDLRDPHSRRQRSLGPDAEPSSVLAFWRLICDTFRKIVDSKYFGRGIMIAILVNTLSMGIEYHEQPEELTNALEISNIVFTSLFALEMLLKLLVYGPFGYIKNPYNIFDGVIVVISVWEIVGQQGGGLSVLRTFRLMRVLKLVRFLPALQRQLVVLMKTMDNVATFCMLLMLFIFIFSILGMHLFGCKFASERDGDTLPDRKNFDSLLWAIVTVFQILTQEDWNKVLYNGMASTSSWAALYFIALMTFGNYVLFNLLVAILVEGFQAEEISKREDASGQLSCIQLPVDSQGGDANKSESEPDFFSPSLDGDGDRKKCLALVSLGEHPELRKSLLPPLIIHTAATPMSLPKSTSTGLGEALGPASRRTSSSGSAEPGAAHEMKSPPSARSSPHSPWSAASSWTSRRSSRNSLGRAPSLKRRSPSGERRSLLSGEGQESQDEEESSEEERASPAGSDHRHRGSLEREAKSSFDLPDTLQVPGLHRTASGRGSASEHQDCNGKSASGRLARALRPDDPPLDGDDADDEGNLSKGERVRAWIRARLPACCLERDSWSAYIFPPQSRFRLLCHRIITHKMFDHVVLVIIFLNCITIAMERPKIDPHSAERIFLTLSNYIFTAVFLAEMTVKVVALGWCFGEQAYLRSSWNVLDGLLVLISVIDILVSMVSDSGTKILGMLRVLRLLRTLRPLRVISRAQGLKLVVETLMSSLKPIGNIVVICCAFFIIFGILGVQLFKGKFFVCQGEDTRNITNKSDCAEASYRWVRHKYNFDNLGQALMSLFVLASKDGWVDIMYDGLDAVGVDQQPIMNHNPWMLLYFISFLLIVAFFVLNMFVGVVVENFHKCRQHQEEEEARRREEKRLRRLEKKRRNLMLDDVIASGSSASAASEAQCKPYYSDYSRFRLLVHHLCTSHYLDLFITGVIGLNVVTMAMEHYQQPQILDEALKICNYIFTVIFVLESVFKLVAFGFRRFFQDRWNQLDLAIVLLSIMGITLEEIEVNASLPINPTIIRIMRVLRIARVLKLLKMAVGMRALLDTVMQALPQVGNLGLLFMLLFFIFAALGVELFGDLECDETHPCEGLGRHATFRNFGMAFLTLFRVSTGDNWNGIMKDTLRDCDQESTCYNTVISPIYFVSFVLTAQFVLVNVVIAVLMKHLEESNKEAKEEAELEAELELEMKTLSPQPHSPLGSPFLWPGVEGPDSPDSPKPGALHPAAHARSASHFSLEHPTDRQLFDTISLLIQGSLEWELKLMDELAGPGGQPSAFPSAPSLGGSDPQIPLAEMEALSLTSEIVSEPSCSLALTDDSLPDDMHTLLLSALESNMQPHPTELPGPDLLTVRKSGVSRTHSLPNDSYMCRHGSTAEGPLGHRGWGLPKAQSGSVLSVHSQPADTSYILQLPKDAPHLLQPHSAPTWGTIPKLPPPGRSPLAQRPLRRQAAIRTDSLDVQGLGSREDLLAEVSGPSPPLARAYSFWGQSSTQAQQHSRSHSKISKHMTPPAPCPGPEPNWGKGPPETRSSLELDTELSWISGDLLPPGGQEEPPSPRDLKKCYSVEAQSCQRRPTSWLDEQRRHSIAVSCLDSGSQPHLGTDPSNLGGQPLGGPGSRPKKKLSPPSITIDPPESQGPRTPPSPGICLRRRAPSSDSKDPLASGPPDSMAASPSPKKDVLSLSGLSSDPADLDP

Row | Molecule | Effect on current kinetics or voltage dependency | Peak current density, % of control value | Effect on Cav3.1 current (HEK-293 cells) | Activation V 0.5 | Activation k | Deactivation tau @ −100 mV, Fast | Inactivation Tau @ −20 mV | Inactivation V 0.5 | Inactivation k | Time to peak @ −20 mV | V peak | Peak current, % of control value (doubling the amount of γ4 DNA transfected) | Decrease in Cav3.1 current density (co-expression with Cav3.1 in HEK-293 cells) [%]
1 | B1 | did not alter current kinetics or voltage dependency | 93%±7% | no significant effect | −37.3 ± 0.9 (n = 8) mV | 11.8 ± 0.5 (n = 8) | 1.84 ± 0.28 (n = 8) ms | 15.8 ± 0.7 (n = 7) ms | −79.2 ± 1.5 (n = 7) mV | 6.1 ± 0.2 (n = 7) | 5.2 ± 0.5 (n = 9) ms | −30.6 ± 1.5 (n = 9) mV | 128%±19% | 
2 | B2 | did not alter current kinetics or voltage dependency | 51%±17% |  | −36.3 ± 6.2 (n = 4) mV | 12.7 ± 1.5 (n = 4) | 1.54 ± 0.48 (n = 4) ms | 18.6 ± 1.1 (n = 6) ms | −78.5 ± 2.6 (n = 6) mV | 5.4 ± 0.3 (n = 6) | 6.0 ± 0.8 (n = 5) ms | −31.1 ± 3.1 (n = 9) mV |  | 49

Source: patent US8022177B2, “Peptides and calcium regulation in mammalian cells” (The Board of Trustees of the University of Illinois, priority 2005, dated 2011)
